# In US20240116985A1 (published 2024):
# Starred links: 1 amine or outer side, 2 acyl side, 3 side chain; linkers in the order of their positions; H or OH if unused. Positions of bridges follow the written chain, without caps; N, C: chain ends. Non-standard residues stand in square brackets, D forms with d. Primed or numbered codes have the meaning given here. ReN = (R)-5-(((allyloxy)carbonyl)(methyl)amino)-2-amino-2-methylpentanoic acid, stapling residue, C=CCOC(=O)N(C)CCC[C@@](C)(N[*:1])C(=O)[*:2]; Az″ = 1-((allyloxy)carbonyl)-3-aminoazetidine-3-carboxylic acid (staple end via allyl carbamate), C=CCOC(=O)N1CC(N[*:1])(C(=O)[*:2])C1; PyrS″ = (S)-1-((allyloxy)carbonyl)-3-aminopyrrolidine-3-carboxylic acid (stapling residue), C=CCOC(=O)N1CC[C@@](N[*:1])(C(=O)[*:2])C1; SeN = (S)-5-(((allyloxy)carbonyl)(methyl)amino)-2-amino-2-methylpentanoic acid, C=CCOC(=O)N(C)CCC[C@](C)(N[*:1])C(=O)[*:2]; SdN = (S)-4-(((allyloxy)carbonyl)(methyl)amino)-2-amino-2-methylbutanoic acid, C=CCOC(=O)N(C)CC[C@](C)(N[*:1])C(=O)[*:2]; SgN = (S)-3-(((allyloxy)carbonyl)(methyl)amino)-2-amino-2-methylpropanoic acid, C=CCOC(=O)N(C)C[C@](C)(N[*:1])C(=O)[*:2]; PyrS = (S)-1-((allyloxy)carbonyl)-3-aminopyrrolidine-3-carboxylic acid, C=CCOC(=O)N1CC[C@@](N[*:1])(C(=O)[*:2])C1; Az(3) = 1-((allyloxy)carbonyl)-3-aminoazetidine-3-carboxylic acid, C=CCOC(=O)N1CC(N[*:1])(C(=O)[*:2])C1; R7″ = (R)-2-amino-2-methylnon-8-enoic acid (stapling residue), C=CCCCCC[C@@](C)(N[*:1])C(=O)[*:2]; R7 = (R)-2-amino-2-methylnon-8-enoic acid, C=CCCCCC[C@@](C)(N[*:1])C(=O)[*:2]; R6 = (R)-2-amino-2-methyloct-7-enoic acid, C=CCCCC[C@@](C)(N[*:1])C(=O)[*:2]; R4 = (R)-2-amino-2-methylhex-5-enoic acid, C=CCC[C@@](C)(N[*:1])C(=O)[*:2]; S7 = C[C@@](CCCCCC=[*:3])(N[*:1])C(=O)[*:2]; R8 = C=CCCCCCC[C@@](C)(N)C(=O)O; Aad = N[C@@H](CCCC(=O)O)C(=O)O; Cha = N[C@@H](CC1CCCCC1)C(=O)O; S8 = C=CCCCCCC[C@](C)(N)C(=O)O; R5 = C=CCCC[C@@](C)(N)C(=O)O; hLeu = CC(C)CC[C@H](N)C(=O)O; S5 = C=CCCC[C@](C)(N)C(=O)O
# T1: full-length beta-Catenin (Uniprot ID P35222) (Homo sapiens (Human), UniProt P35222 2-781)
# T1 construct: The assay text says 'full-length'; also called B-Catenin; bCat
# T1 sequence: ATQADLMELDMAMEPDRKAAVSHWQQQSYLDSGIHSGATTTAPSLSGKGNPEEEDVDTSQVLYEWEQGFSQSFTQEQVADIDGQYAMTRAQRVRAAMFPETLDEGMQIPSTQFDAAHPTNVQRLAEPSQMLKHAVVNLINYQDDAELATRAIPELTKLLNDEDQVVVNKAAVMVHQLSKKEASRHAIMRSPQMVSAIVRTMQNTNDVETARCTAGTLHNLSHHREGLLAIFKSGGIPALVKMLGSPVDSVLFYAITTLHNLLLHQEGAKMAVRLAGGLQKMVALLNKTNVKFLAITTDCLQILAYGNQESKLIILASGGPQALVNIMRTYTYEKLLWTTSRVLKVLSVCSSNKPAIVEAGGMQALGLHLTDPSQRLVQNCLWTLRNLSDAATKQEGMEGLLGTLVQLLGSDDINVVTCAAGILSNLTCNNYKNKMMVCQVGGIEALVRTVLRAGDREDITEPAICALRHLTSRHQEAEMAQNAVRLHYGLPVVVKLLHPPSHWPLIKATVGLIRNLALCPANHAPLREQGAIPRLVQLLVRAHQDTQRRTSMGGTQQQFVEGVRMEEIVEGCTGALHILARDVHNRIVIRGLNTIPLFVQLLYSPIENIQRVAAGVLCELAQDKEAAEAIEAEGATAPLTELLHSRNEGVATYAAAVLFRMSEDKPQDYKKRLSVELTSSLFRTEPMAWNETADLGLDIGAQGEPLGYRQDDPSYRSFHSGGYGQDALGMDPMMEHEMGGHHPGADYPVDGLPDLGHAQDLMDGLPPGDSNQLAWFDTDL
# Target: T1, full-length beta-Catenin (Uniprot ID …)
# Assay: AlphaScreen competition vs biotin-TCF4(10-53) on full-length beta-catenin
# Procedure: Equal volume of the titrated peptide was added to the plate and incubated for 15 minutes at 20° C. Then 4 uL of donor and 4 uL acceptor beads at 10 ug/mL were added to the plate, for a 16 uL reaction pool and protected from light for 60 minutes at 20° C. prior to read. Reads were performed on a CLARIOstar plate reader (BMG Labtech) in duplicate, and data were fitted to a 1:1 binding model with hill slope using an in-house script. All provided concentrations are final concentrations.
row,Binder,EC50
1,"Ac-FDA[R8]D[Cha]AAFV[PyrS]FWQ-NH2 (staple 4-11; not fully specified; printed as Ac-Phe-Asp-Ala-R8-Asp-Cha-Ala-Ala-Phe-Val-PyrS-Phe-Trp-Gln-NH2, Stapled peptide composition) [I-15]",≥ 10 µM
2,"Ac-FDA[Az″]DDAAFV[S8]FWQ-NH2 (staple 4-11, Stapled peptide composition) [I-35]",9.54 µM
3,"Ac-FDA[R8]DDAAFV[SgN]FWQ-NH2 (staple 4-11, Stapled peptide composition) [I-34]",≥ 10 µM
4,"Ac-FDA[R8]D[hLeu]AAFV[PyrS]FWQ-NH2 (staple 4-11; not fully specified; printed as Ac-Phe-Asp-Ala-R8-Asp-hLeu-Ala-Ala-Phe-Val-PyrS-Phe-Trp-Gln-NH2, Stapled peptide composition) [I-18]",≥ 10 µM
5,"Ac-FDA[R8]D[hLeu]AAFV[PyrS]FWQ-NH2 (staple 4-11, Stapled peptide composition) [I-17]",≥ 10 µM
6,"Ac-FDA[R4]DDAAFV[SeN]FWQ-NH2 (staple 4-11, Stapled peptide composition) [I-36]",8.27 µM
7,"FDAXDDAAFVXFWQ (not fully specified; Ac-Phe-Asp-Ala-ReN-Asp-Asp-Ala-Ala-Phe-Val-S6-Phe-Trp-Gln-NH2 as printed: N-terminal acetyl, C-terminal amide, ReN at 4 stapled to S6 at 11, Stapled peptide composition) [I-29]",≥ 10 µM
8,"FDAXDDAAFVXFWQ (not fully specified; Ac-Phe-Asp-Ala-ReN-Asp-Asp-Ala-Ala-Phe-Val-S6-Phe-Trp-Gln-NH2 as printed: N-terminal acetyl, C-terminal amide, ReN at 4 stapled to S6 at 11, Stapled peptide composition) [I-28]",8.46 µM
9,"FDAXDDAAFVXFWQ (not fully specified; Ac-Phe-Asp-Ala-Az-Asp-Asp-Ala-Ala-Phe-Val-S7-Phe-Trp-Gln-NH2 as printed: N-terminal acetyl, C-terminal amide, Az at 4 stapled to S7 at 11, Stapled peptide composition) [I-32]",7.35 µM
10,"Ac-FDA[R7]DDAAFV[PyrS]FWQ-NH2 (staple 4-11; not fully specified; printed as Ac-Phe-Asp-Ala-R7-Asp-Asp-Ala-Ala-Phe-Val-PyrS-Phe-Trp-Gln-NH2, Stapled peptide composition) [I-31]",7.22 µM
11,"Ac-FDA[R5]DDAAFV[SdN]FWQ-NH2 (staple 4-11, Stapled peptide composition) [I-37]",≥ 10 µM
12,"Ac-FDA[R8]DDA[Aad]FV[PyrS]FWQ-NH2 (staple 4-11; not fully specified; printed as Ac-Phe-Asp-Ala-R8-Asp-Asp-Ala-Aad-Phe-Val-PyrS-Phe-Trp-Gln-NH2, Stapled peptide composition) [I-24]",8.57 µM
13,"Ac-FDA[R8]D[Cha]AAFV[PyrS]FWQ-NH2 (staple 4-11; not fully specified; printed as Ac-Phe-Asp-Ala-R8-Asp-Cha-Ala-Ala-Phe-Val-PyrS-Phe-Trp-Gln-NH2, Stapled peptide composition) [I-16]",≥ 10 µM
14,"Ac-FDA[R6]DDAAFV[SeN]FWQ-NH2 (staple 4-11, Stapled peptide composition) [I-26]",8.11 µM
15,"Ac-FDA[Az(3)]DDAAFV[S7]FWQ-NH2 (staple 4-11, Stapled peptide composition) [I-33]",9.98 µM
16,"Ac-FDA[R7″]DDAAFV[PyrS″]FWQ-NH2 (staple 4-11, Stapled peptide composition) [I-30]",8.82 µM
17,"Ac-FDA[R8]DDA[Aad]FV[PyrS″]FWQ-NH2 (staple 4-11; also: earlier-eluting HPLC peak, Stapled peptide composition) [I-23]",9.22 µM
18,"Ac-FDA[R5]DDAAFV[SeN]FWQ-NH2 (staple 4-11, Stapled peptide composition) [I-25]",7.22 µM
19,"Ac-FDA[ReN]DDAAFV[S5]FWQ-NH2 (staple 4-11, Stapled peptide composition) [I-27]",6.82 µM
